In article doi:10.1101/152272, “t-Darpp is an elongated monomer that binds to calcium and is phosphorylated by cyclin-dependent kinases 1 and 5” (bioRxiv, 2017):

Target: the molecule itself
Assay: cross-linking; glutaraldehyde 0.1% or 1% (v/v), 30 min at 25°C, then SDS-PAGE (10% gel); each protein alone and an equimolar mixture of t-Darpp and Darpp-32

B1: Darpp-32 (natural protein, UniProt Q9UD71-1 1-204, looked up)
chain: MDPKDRKKIQFSVPAPPSQLDPRQVEMIRRRRPTPAMLFRLSEHSSPEEEASPHQRASGEGHHLKSKRPNPCAYTPPSLKAVQRIAESHLQSISNLNENQASEEEDELGELRELGYPREEDEEEEEDDEEEEEEEDSQAEVLKVIRQSAGQKTTCGQGLEGPWERPPPLDESERDGGSEDQVEDPALSEPGEEPQRPSPSEPGT
notes: Darpp-32, the longer isoform encoded by PPP1R1B, with 36 more residues at the N-terminus than t-Darpp; The printed UniProt entry is the human protein; The construct is probably the whole isoform, because the tail is said to be added to the C-terminus of Darpp-32; also called recombinant Darpp-32; longer isoform of t-Darpp; source: E. coli BL21 DE3, purified (Ni-NTA)
stoichiometry N: 2
